B1: GLTSCR2 (parent)
chain: FQRRNMIEPRERAKFKRKYKVKLV

Variants of: B1
Assay: protein stability index of a GFP-peptide fusion (GPS, HEK-293T) (PSI 1-6); higher = more stable
Conditions: c terminus: a fixed tail appended
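Note: lentivirally expressed fusions sorted by FACS into six bins by GFP to DsRed ratio, PSI derived from sequencing read proportions per bin multiplied by bin number.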

In order of falling protein stability index:
1. FQRRNWIEPRERAKFKRKYKVKLV  3.61
2. FQRRNMIEARERAKFKRKYKVKLV  3.52
3. FQRRNMDEPRERAKFKRKYKVKLV  3.27
4. FQRRNSIEPRERAKFKRKYKVKLV  3.25
5. FQRRNTIEPRERAKFKRKYKVKLV  3.15
6. FQRRNMICPRERAKFKRKYKVKLV  3.15
7. FQRRNEIEPRERAKFKRKYKVKLV  3.08
8. FQRREMIEPRERAKFKRKYKVKLV  3.05
9. FQRRNMIEPREIAKFKRKYKVKLV  3.04
10. FQRRNMSEPRERAKFKRKYKVKLV  3.04
11. FQRRNMIEPCERAKFKRKYKVKLV  3.03
12. FQRVNMIEPRERAKFKRKYKVKLV  3.02
13. FQRRNRIEPRERAKFKRKYKVKLV  2.92
14. FQRQNMIEPRERAKFKRKYKVKLV  2.85
15. FQRRLMIEPRERAKFKRKYKVKLV  2.83
16. FQRRNMIEPRWRAKFKRKYKVKLV  2.81
17. FQRRNMCEPRERAKFKRKYKVKLV  2.78
18. FQRRNQIEPRERAKFKRKYKVKLV  2.74
19. FQDRNMIEPRERAKFKRKYKVKLV  2.71
20. FQRRNMIAPRERAKFKRKYKVKLV  2.7
21. FQRNNMIEPRERAKFKRKYKVKLV  2.7
22. FQRRNMIEPREMAKFKRKYKVKLV  2.69
23. FQERNMIEPRERAKFKRKYKVKLV  2.69
24. FQMRNMIEPRERAKFKRKYKVKLV  2.68
25. FQRRNMMEPRERAKFKRKYKVKLV  2.67
26. FQNRNMIEPRERAKFKRKYKVKLV  2.66
27. FQRRNMIEPRPRAKFKRKYKVKLV  2.66
28. FQRRNMNEPRERAKFKRKYKVKLV  2.64
29. FQRRNMIEPRLRAKFKRKYKVKLV  2.63
30. FQRRCMIEPRERAKFKRKYKVKLV  2.62
31. FQRRNMIEPREGAKFKRKYKVKLV  2.6
32. FQRTNMIEPRERAKFKRKYKVKLV  2.6
33. FQKRNMIEPRERAKFKRKYKVKLV  2.6
34. FQRRNMIEPRNRAKFKRKYKVKLV  2.6
35. FQRRAMIEPRERAKFKRKYKVKLV  2.59
36. FQRRNMIEPRTRAKFKRKYKVKLV  2.59
37. FQRRNMIEPDERAKFKRKYKVKLV  2.58
38. FQRRNGIEPRERAKFKRKYKVKLV  2.57
39. FQRRGMIEPRERAKFKRKYKVKLV  2.57
40. FQRRNAIEPRERAKFKRKYKVKLV  2.56
41. FQRRNMIEPAERAKFKRKYKVKLV  2.56
42. FQRRRMIEPRERAKFKRKYKVKLV  2.56
43. FQRRNMIEPRARAKFKRKYKVKLV  2.54
44. FQRRNMIEPRDRAKFKRKYKVKLV  2.53
45. FQRRNKIEPRERAKFKRKYKVKLV  2.52
46. FQRRNMIEKRERAKFKRKYKVKLV  2.52
47. FQRLNMIEPRERAKFKRKYKVKLV  2.51
48. FQRRNMIEPREEAKFKRKYKVKLV  2.5
49. FQRRMMIEPRERAKFKRKYKVKLV  2.5
50. FQRRNMIERRERAKFKRKYKVKLV  2.5
51. FQRRNYIEPRERAKFKRKYKVKLV  2.48
52. FQRRNMIEPLERAKFKRKYKVKLV  2.47
53. FQRRNMIEHRERAKFKRKYKVKLV  2.47
54. FQRRNMREPRERAKFKRKYKVKLV  2.46
55. FQRRNMIEPRENAKFKRKYKVKLV  2.45
56. FQRRNMIEPREQAKFKRKYKVKLV  2.43
57. FQRRNMIPPRERAKFKRKYKVKLV  2.42
58. FQRYNMIEPRERAKFKRKYKVKLV  2.42
59. FQRRKMIEPRERAKFKRKYKVKLV  2.42
60. FQRRNMIEPREKAKFKRKYKVKLV  2.41
61. FQRRNMIEPRKRAKFKRKYKVKLV  2.41
62. FQRRNMIEPRGRAKFKRKYKVKLV  2.4
63. FQRRNMIEFRERAKFKRKYKVKLV  2.4
64. FQRRNMIEIRERAKFKRKYKVKLV  2.4
65. FQCRNMIEPRERAKFKRKYKVKLV  2.38
66. FQRRNMIEQRERAKFKRKYKVKLV  2.38
67. FQLRNMIEPRERAKFKRKYKVKLV  2.37
68. FQRRNMIEPRMRAKFKRKYKVKLV  2.37
69. FQRRNMIEPRFRAKFKRKYKVKLV  2.37
70. FQRRPMIEPRERAKFKRKYKVKLV  2.36
71. FQRRQMIEPRERAKFKRKYKVKLV  2.36
72. FQRRIMIEPRERAKFKRKYKVKLV  2.36
73. FQRRNMIEPRCRAKFKRKYKVKLV  2.36
74. FQRRNMIKPRERAKFKRKYKVKLV  2.35
75. FQRSNMIEPRERAKFKRKYKVKLV  2.35
76. FQRRNMGEPRERAKFKRKYKVKLV  2.35
77. FQRRNMIMPRERAKFKRKYKVKLV  2.34
78. FQRRNMIENRERAKFKRKYKVKLV  2.34
79. FQRRNHIEPRERAKFKRKYKVKLV  2.33
80. FQRRNMIHPRERAKFKRKYKVKLV  2.33
81. FQRRYMIEPRERAKFKRKYKVKLV  2.33
82. FQRRNMIESRERAKFKRKYKVKLV  2.33
83. FQRRNMIEPREDAKFKRKYKVKLV  2.31
84. FQRRNDIEPRERAKFKRKYKVKLV  2.31
85. FQRRNMTEPRERAKFKRKYKVKLV  2.31
86. FQRRNMINPRERAKFKRKYKVKLV  2.3
87. FQRRVMIEPRERAKFKRKYKVKLV  2.29
88. FQRRNMIEPKERAKFKRKYKVKLV  2.28
89. FQRRNNIEPRERAKFKRKYKVKLV  2.27
90. FQRRNMILPRERAKFKRKYKVKLV  2.27
91. FQQRNMIEPRERAKFKRKYKVKLV  2.26
92. FQRRNIIEPRERAKFKRKYKVKLV  2.25
93. FQRRNPIEPRERAKFKRKYKVKLV  2.25
94. FQRRNMIVPRERAKFKRKYKVKLV  2.25
95. FQRRNMIEPRQRAKFKRKYKVKLV  2.25
96. FQRRNMPEPRERAKFKRKYKVKLV  2.25
97. FQRRNMQEPRERAKFKRKYKVKLV  2.24
98. FQRRNMVEPRERAKFKRKYKVKLV  2.24
99. FQRRNMIYPRERAKFKRKYKVKLV  2.23
100. FQRRDMIEPRERAKFKRKYKVKLV  2.23
101. FQRRNMIEPRRRAKFKRKYKVKLV  2.23
102. FQRRNMEEPRERAKFKRKYKVKLV  2.22
103. FQRANMIEPRERAKFKRKYKVKLV  2.21
104. FQRRNMIEPPERAKFKRKYKVKLV  2.2
105. FQRRNMIEPRSRAKFKRKYKVKLV  2.2
106. FQRRNMFEPRERAKFKRKYKVKLV  2.2
107. FQRRNMIEPREHAKFKRKYKVKLV  2.19
108. FQRRNMIEVRERAKFKRKYKVKLV  2.19
109. FQRRNMIGPRERAKFKRKYKVKLV  2.18
110. FQRRNMIEPRHRAKFKRKYKVKLV  2.18
111. FQRRNMIEPYERAKFKRKYKVKLV  2.17
112. FQIRNMIEPRERAKFKRKYKVKLV  2.17
113. FQGRNMIEPRERAKFKRKYKVKLV  2.17
114. FQRRNMIEPRETAKFKRKYKVKLV  2.15
115. FQRRNMIEDRERAKFKRKYKVKLV  2.15
116. FQRRNMAEPRERAKFKRKYKVKLV  2.15
117. FQRRNVIEPRERAKFKRKYKVKLV  2.14
118. FQRINMIEPRERAKFKRKYKVKLV  2.14
119. FQRRNMIECRERAKFKRKYKVKLV  2.14
120. FQRRNMIEPSERAKFKRKYKVKLV  2.13
121. FQRRNMIDPRERAKFKRKYKVKLV  2.13
122. FQRHNMIEPRERAKFKRKYKVKLV  2.13
123. FQRRNMIEPGERAKFKRKYKVKLV  2.12
124. FQRRNMIEPIERAKFKRKYKVKLV  2.11
125. FQRRWMIEPRERAKFKRKYKVKLV  2.1
126. FQRRNMKEPRERAKFKRKYKVKLV  2.1
127. FQRRNMIEMRERAKFKRKYKVKLV  2.06
128. FQRRNMITPRERAKFKRKYKVKLV  2.05
129. FQRRNMISPRERAKFKRKYKVKLV  2.04
130. FQVRNMIEPRERAKFKRKYKVKLV  2.04
131. FQRRNMIIPRERAKFKRKYKVKLV  2.02
132. FQRCNMIEPRERAKFKRKYKVKLV  2.02
133. FQRRSMIEPRERAKFKRKYKVKLV  2.02
134. FQRRNMIEWRERAKFKRKYKVKLV  2.01
135. FQRRNMIEPRECAKFKRKYKVKLV  2
136. FQRRNMIEPFERAKFKRKYKVKLV  2
137. FQRENMIEPRERAKFKRKYKVKLV  2
138. FQRRNMIEPTERAKFKRKYKVKLV  1.99
139. FQRRNMIETRERAKFKRKYKVKLV  1.99
140. FQRRNMLEPRERAKFKRKYKVKLV  1.99
141. FQRRNMIEPRERCKFKRKYKVKLV  1.98
142. FQRRNMIEPEERAKFKRKYKVKLV  1.98
143. FQRDNMIEPRERAKFKRKYKVKLV  1.98
144. FQRWNMIEPRERAKFKRKYKVKLV  1.96
145. FQPRNMIEPRERAKFKRKYKVKLV  1.96
146. FQRRNMIEPHERAKFKRKYKVKLV  1.95
147. FQRKNMIEPRERAKFKRKYKVKLV  1.95
148. FQRRNFIEPRERAKFKRKYKVKLV  1.93
149. FQHRNMIEPRERAKFKRKYKVKLV  1.93
150. FQRRNMIEPMERAKFKRKYKVKLV  1.92
151. FQRRNMYEPRERAKFKRKYKVKLV  1.92
152. FQRRNMIWPRERAKFKRKYKVKLV  1.91
153. FQRRNMIEPRYRAKFKRKYKVKLV  1.91
154. FQRGNMIEPRERAKFKRKYKVKLV  1.9
155. FQRRNMWEPRERAKFKRKYKVKLV  1.9
156. FQRRHMIEPRERAKFKRKYKVKLV  1.88
157. FQRRTMIEPRERAKFKRKYKVKLV  1.88
158. FQRRNMIEPRVRAKFKRKYKVKLV  1.88
159. FQRRNMIEPREAAKFKRKYKVKLV  1.87
160. FQRRNMHEPRERAKFKRKYKVKLV  1.87
161. FQRMNMIEPRERAKFKRKYKVKLV  1.86
162. FQRRNMIEPRESAKFKRKYKVKLV  1.84
163. FQRRNMIRPRERAKFKRKYKVKLV  1.83
164. FQRRNMIFPRERAKFKRKYKVKLV  1.82
165. FQRRNMIEPRELAKFKRKYKVKLV  1.79
166. FQRRNMIEPREYAKFKRKYKVKLV  1.79
167. FQTRNMIEPRERAKFKRKYKVKLV  1.79
168. FQRRNMIELRERAKFKRKYKVKLV  1.78
169. FQRRNMIEPWERAKFKRKYKVKLV  1.76
170. FQFRNMIEPRERAKFKRKYKVKLV  1.75
171. FQRRNCIEPRERAKFKRKYKVKLV  1.74
172. FQRPNMIEPRERAKFKRKYKVKLV  1.73
173. FQRRNMIEPREPAKFKRKYKVKLV  1.72
174. FQRRNMIEGRERAKFKRKYKVKLV  1.71
175. FQRRNMIEPRERDKFKRKYKVKLV  1.7
176. FQRRNMIEYRERAKFKRKYKVKLV  1.67
177. FQSRNMIEPRERAKFKRKYKVKLV  1.65
178. FQRRNMIQPRERAKFKRKYKVKLV  1.64
179. FQRRNLIEPRERAKFKRKYKVKLV  1.63
180. FQRRNMIEPNERAKFKRKYKVKLV  1.63
181. FQYRNMIEPRERAKFKRKYKVKLV  1.6
182. FQRRNMIEPRIRAKFKRKYKVKLV  1.6
183. FQRRFMIEPRERAKFKRKYKVKLV  1.59
184. FQRRNMIEPVERAKFKRKYKVKLV  1.58
185. FQWRNMIEPRERAKFKRKYKVKLV  1.58
186. FQRRNMIEPQERAKFKRKYKVKLV  1.53
187. FQRRNMIEPREVAKFKRKYKVKLV  1.5
188. FQRRNMIEPREFAKFKRKYKVKLV  1.47

— the supplement of paper PMC10567573
